For one substance, CAR+ (% cells stained by APC-sCD19) results are on record in patent US20200331998A1.

The target in this test is UCART19 CAR (anti-CD19 chimeric antigen receptor with a 4G7-derived scFv, on UCART19 cells). Put plainly: flow cytometry blocking assay: fresh UCART19 cells pre-incubated with unconjugated antibody, then stained with labelled soluble CD19-hFc; ligand: m14.
Sequence of UCART19 CAR (anti-CD19 chimeric antigen receptor with a 4G7-derived scFv, on UCART19 cells) (chain, as listed by the source mutant): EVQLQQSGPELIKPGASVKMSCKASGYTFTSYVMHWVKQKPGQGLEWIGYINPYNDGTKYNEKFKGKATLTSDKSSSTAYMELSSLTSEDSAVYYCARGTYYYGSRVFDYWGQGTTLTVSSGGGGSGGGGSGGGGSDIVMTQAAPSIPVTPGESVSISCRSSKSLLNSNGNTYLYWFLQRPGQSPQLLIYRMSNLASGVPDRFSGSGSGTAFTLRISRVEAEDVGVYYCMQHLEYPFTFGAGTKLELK

On to Isotype Control (antibody), for which the CAR+ (% cells stained by APC-sCD19) at 0.2 µg/mL antibody is 52.4%, the CAR+ (% cells stained by APC-sCD19) at 0.39 µg/mL antibody was 52.9%, the CAR+ (% cells stained by APC-sCD19) at 0.78 µg/mL antibody is 53.4% and the CAR+ (% cells stained by APC-sCD19) at 1.56 µg/mL antibody came to 52.7%. Further, the CAR+ (% cells stained by APC-sCD19) at 3.125 µg/mL antibody was determined as 52.9%, the CAR+ (% cells stained by APC-sCD19) at 6.25 µg/mL antibody worked out at 52.6%, the CAR+ (% cells stained by APC-sCD19) at 12.5 µg/mL antibody was determined as 52.3% and the CAR+ (% cells stained by APC-sCD19) at 25 µg/mL antibody worked out at 52%. Moreover, the CAR+ (% cells stained by APC-sCD19) at 50 µg/mL antibody came to 53.3% and the CAR+ (% cells stained by APC-sCD19) at 100 µg/mL antibody worked out at 54.8%.
